Results taken from paper PMC12263829 (Nature Communications, 2025).

Target: the molecule itself
Assay: Number and Brightness

Protein	stoichiometry N [molecules]
EGFP-EWSR1::FLI1 (natural protein, human, UniProt Q01844 1-264, looked up) MASTDYSTYSQAAAQQGYSAYTAQPTQGYAQTTQAYGQQSYGTYGQPTDVSYTQAQTTATYGQTAYATSYGQPPTGYTTPTAPQAYSQPVQGYGTGAYDTTTATVTTTQASYAAQSAYGTQPAYPAYGQQPAATAPTRPQDGNKPTETSQPQSSTGGYNQPSLGYGQSNYSYPQVPGSYPMQPVTAPPSYPPTSYSSTQPTSYDQSSYSQQNTYGQPSSYGQQSSYGQQSSYGQQPPTSYPPQTGSYSQAPSQYSQQSSSYGQQPSYDSVRRGAWGNNMNSGLNKSPPLGGAQTISKNTEQRPQPDPYQILGPTSSRLANPGSGQIQLWQFLLELLSDSANASCITWEGTNGEFKMTDPDEVARRWGERKSKPNMNYDKLSRALRYYYDKNIMTKVHGKRYAYKFDFHGIAQALQPHPTESSMYKYPSDISYMPSYHAHQQKVNFVPPHPSSMPVTSSSFFGAASQYWTSPTGGIYPNPNVPRHPNTHVPSHLGSYY	3 to 4
EGFP-∆63EWSR1::FLI1 (domain or fragment, human, UniProt Q01844 64-264, looked up) TAYATSYGQPPTGYTTPTAPQAYSQPVQGYGTGAYDTTTATVTTTQASYAAQSAYGTQPAYPAYGQQPAATAPTRPQDGNKPTETSQPQSSTGGYNQPSLGYGQSNYSYPQVPGSYPMQPVTAPPSYPPTSYSSTQPTSYDQSSYSQQNTYGQPSSYGQQSSYGQQSSYGQQPPTSYPPQTGSYSQAPSQYSQQSSSYGQQPSYDSVRRGAWGNNMNSGLNKSPPLGGAQTISKNTEQRPQPDPYQILGPTSSRLANPGSGQIQLWQFLLELLSDSANASCITWEGTNGEFKMTDPDEVARRWGERKSKPNMNYDKLSRALRYYYDKNIMTKVHGKRYAYKFDFHGIAQALQPHPTESSMYKYPSDISYMPSYHAHQQKVNFVPPHPSSMPVTSSSFFGAASQYWTSPTGGIYPNPNVPRHPNTHVPSHLGSYY	3 to 4
